Test results from article PMC5487423 (2017).

T1: CCL5 (human, UniProt P13501 24-91)
T1 chain: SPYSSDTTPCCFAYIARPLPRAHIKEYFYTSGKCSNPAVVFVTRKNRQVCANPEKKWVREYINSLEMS

T2: CCL4L1_HUMAN (Homo sapiens)
T2 chain: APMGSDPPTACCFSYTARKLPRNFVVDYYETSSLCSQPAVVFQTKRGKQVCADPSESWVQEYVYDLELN

T3: CCL1 (human, UniProt P22362 24-96)
T3 chain: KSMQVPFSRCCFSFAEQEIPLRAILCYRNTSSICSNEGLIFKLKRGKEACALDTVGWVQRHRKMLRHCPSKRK

T4: CCL8 (human, UniProt P80075 24-99)
T4 chain: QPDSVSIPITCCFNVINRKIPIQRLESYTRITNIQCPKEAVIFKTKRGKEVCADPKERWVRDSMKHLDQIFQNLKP

T5: CCL24_HUMAN (Homo sapiens)
T5 chain: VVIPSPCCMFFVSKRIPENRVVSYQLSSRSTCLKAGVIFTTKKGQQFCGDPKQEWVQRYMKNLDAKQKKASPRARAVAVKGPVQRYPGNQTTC

B1: P467_RHIPU, purified, C-terminal StrepII-8xHis tag (natural protein)
chain: ETGAEKSLDSDSSGEDYELWTQGCPFLVAENRTGFGTTVSCQHNCNGAIEKVPEGEPCYTIGEDGLGRMKLNLPYNCSLGECSGGVCVPNGRSDVCFKRTWEENNKAMA
B2: P1183_AMBTR, purified, C-terminal StrepII-8xHis tag (natural protein)
chain: ETGEAPKDDFEYDGGCPFVVLDNGTHVKPAGCSHLCNGAPETLDNIECYNVTEEVAKRMTPGIPYACWLGWCSKGECKRDNRTEVCYRGSEEE
B3: P974_AMBCA, purified, C-terminal StrepII-8xHis tag (natural protein)
chain: ETGENTQQEEQDYDYGTDTCPFPVLANKTNKAKFVGCHQKCNGGDQKLTDGTACYVVERKVWDRMTPMLWYECPLGECKNGVCEDLRKKEDCRKGNGEEK
B4: P546_AMBCA, purified, C-terminal StrepII-8xHis tag (natural protein)
chain: ETGENTQQEEEDYDYGTDTCPFPVLANKTNKAKFVGCHQKCNGGDQKLTDGTACYVVERKVWDRMTPMLWYSCPLGECKNGVCEDLRKKEECRKGNGEEK
B5: P983_AMBCA, purified, C-terminal StrepII-8xHis tag (natural protein)
chain: ETGEDTGTEDDFDYGNTGCPFPVLGNYKSNMTKPVGCKNKCGSGYEVLNDTTPCYVIDQKVFNNMVPLRQYSKCPLGFCENGECKPNDQAEDCYKGREEQKGGGGGSGGGGSGGASAWSHPQFEKLEHHHHHHHH
B6: P985_AMBPA, purified, C-terminal StrepII-8xHis tag (natural protein)
chain: ETGDEESEELGASTDVDYEELDANCTCPAPALTSTRNNKHYPLGCIYNCSSYNCTIPDGTPCYVLTLGEVKEHLQIGSTVPNCTCGLCRNGTCVSNGTVEECFAVEEIEET

What was measured:
Experiment in all cases: BLI
CCL5 = biological target: T1, CCL5
CCL4L1_HUMAN = biological target: T2, CCL4L1_HUMAN
CCL1 = biological target: T3, CCL1
CCL8 = biological target: T4, CCL8
CCL24_HUMAN = biological target: T5, CCL24_HUMAN

| Binder | Kd (CCL5) | Kd (CCL4L1_HUMAN) | Kd (CCL1) | Kd (CCL8) | Kd (CCL24_HUMAN) |
| --- | --- | --- | --- | --- | --- |
| B1 | 7.7 nM | 4.7 nM | 53 nM | – | – |
| B2 | – | – | – | 1100 nM | – |
| B3 | – | – | 71 nM | 2.6 nM | – |
| B4 | – | 8.9 nM | – | 1.3 nM | – |
| B5 | – | 2.9 nM | – | – | – |
| B6 | – | 21 nM | 8.3 nM | – | 41 nM |
